Experimental data reported in US20090291088A1 (Biogen, published 2009).

Experiments:
human IGF-1R(1-903)-Fc [1] = target: T1, human IGF-1R(1-903)-Fc (human, UniProt P08069 31-933); test: ELISA on hIGF-1R-Fc, competitor biotinylated M13-C06
T1 construct: Made by Biogen Idec; Multimerises through IGF-1R and Fc; also called hIGF-1R-Fc; IGF-1R-Fc; not shown: C-terminal human IgG1-Fc tag

[2] = target: T2, human IGF-1R expressed on cells (human, UniProt P08069 31-1367); test: cell-based or functional assay
human IGF-1R(1-903)-Fc [3] = target: T1, human IGF-1R(1-903)-Fc; test: competition ELISA: biotinylated hIGF-1R-Fc on streptavidin plate, 320 nM human IGF-2 His, detection with anti-His-HRP; blocked ligand human IGF-2 His
[4] = target: T3, murine IGF-1R expressed on cells (mouse, UniProt Q60751 31-1373); test: binding to CHO transfectants
T3 construct: whole, on cells; also called mouse IGF-1R
T3 sequence (Q60751 31-1373): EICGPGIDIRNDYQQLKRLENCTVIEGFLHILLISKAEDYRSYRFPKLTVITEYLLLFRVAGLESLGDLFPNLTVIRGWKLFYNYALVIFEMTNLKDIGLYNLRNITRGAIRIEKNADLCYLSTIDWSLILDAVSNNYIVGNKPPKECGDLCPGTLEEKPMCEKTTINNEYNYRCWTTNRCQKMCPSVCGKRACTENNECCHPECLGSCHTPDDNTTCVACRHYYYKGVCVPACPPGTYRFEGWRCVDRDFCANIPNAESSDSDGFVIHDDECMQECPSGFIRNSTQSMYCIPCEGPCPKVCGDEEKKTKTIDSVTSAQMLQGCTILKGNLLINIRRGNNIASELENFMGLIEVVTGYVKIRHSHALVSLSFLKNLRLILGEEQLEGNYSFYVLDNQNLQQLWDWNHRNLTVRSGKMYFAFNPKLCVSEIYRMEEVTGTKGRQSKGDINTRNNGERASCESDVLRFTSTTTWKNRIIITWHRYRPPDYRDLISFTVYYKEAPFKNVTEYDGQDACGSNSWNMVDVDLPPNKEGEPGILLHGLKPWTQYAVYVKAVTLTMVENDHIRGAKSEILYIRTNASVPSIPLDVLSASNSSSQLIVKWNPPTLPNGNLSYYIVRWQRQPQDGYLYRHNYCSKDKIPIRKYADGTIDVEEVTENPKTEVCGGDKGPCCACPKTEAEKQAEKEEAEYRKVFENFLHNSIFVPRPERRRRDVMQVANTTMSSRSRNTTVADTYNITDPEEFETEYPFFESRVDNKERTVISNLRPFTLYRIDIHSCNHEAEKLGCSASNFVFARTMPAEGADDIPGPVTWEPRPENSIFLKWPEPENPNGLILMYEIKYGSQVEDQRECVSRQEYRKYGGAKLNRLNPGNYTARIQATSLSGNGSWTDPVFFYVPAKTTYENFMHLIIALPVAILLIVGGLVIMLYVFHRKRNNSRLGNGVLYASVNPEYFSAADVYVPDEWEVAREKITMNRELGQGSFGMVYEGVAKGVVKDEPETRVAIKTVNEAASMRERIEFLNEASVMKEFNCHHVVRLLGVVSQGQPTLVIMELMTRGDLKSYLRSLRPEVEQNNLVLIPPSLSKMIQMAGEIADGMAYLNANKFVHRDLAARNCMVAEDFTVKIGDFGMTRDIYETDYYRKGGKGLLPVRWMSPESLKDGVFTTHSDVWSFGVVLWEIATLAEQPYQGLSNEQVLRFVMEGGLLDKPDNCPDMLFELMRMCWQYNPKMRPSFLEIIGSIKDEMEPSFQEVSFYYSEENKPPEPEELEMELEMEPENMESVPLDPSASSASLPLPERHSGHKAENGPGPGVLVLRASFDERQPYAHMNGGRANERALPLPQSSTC

human IGF-1R(1-903)-Fc [5] = target: T1, human IGF-1R(1-903)-Fc; test: ELISA, plate coated with soluble IGF-1 receptor Fc fusion protein, detection with anti-human kappa-HRP
Protocol: The plate was washed with phosphate-buffered saline (PBS, Irvine Scientific, Cat#9240), pH 7.4 plus 0.025% Tween 20 in the Skan Washer 300 (Skatron Instruments), blocked with buffer containing 1% nonfat milk, 0.05% Tween 20 in PBS, pH 7.4, and then incubated at room temperature for 1 hour. After incubation plate was washed with PBS plus 0.025% Tween 20 in the Skan Washer 300. […] Following a one hour incubation at room temperature, plate was washed with PBS plus 0.025% Tween 20 in the Skan Washer 300. […] Plate incubated for 1 hour at room temperature was washed with PBS plus 0.025% Tween 20 in the Skan Washer 300. […] The absorbance was measured at 450 nm, background 540 nm for TMB using the Molecular Devices plate reader. Data was analyzed using the SOFTMAX PRO software package version 4.3 LS (Molecular Devices Corp.).

[6] = target: T4, Rhesus IGF-1R expressed on CHO cells (rhesus monkey, UniProt I2CWY3 31-1367); test: flow cytometry and confocal microscopy, CHO transfectants
T4 construct: whole, on cells; also called Rhesus IGF-1R/CHO
T4 sequence (I2CWY3 entry or part of it): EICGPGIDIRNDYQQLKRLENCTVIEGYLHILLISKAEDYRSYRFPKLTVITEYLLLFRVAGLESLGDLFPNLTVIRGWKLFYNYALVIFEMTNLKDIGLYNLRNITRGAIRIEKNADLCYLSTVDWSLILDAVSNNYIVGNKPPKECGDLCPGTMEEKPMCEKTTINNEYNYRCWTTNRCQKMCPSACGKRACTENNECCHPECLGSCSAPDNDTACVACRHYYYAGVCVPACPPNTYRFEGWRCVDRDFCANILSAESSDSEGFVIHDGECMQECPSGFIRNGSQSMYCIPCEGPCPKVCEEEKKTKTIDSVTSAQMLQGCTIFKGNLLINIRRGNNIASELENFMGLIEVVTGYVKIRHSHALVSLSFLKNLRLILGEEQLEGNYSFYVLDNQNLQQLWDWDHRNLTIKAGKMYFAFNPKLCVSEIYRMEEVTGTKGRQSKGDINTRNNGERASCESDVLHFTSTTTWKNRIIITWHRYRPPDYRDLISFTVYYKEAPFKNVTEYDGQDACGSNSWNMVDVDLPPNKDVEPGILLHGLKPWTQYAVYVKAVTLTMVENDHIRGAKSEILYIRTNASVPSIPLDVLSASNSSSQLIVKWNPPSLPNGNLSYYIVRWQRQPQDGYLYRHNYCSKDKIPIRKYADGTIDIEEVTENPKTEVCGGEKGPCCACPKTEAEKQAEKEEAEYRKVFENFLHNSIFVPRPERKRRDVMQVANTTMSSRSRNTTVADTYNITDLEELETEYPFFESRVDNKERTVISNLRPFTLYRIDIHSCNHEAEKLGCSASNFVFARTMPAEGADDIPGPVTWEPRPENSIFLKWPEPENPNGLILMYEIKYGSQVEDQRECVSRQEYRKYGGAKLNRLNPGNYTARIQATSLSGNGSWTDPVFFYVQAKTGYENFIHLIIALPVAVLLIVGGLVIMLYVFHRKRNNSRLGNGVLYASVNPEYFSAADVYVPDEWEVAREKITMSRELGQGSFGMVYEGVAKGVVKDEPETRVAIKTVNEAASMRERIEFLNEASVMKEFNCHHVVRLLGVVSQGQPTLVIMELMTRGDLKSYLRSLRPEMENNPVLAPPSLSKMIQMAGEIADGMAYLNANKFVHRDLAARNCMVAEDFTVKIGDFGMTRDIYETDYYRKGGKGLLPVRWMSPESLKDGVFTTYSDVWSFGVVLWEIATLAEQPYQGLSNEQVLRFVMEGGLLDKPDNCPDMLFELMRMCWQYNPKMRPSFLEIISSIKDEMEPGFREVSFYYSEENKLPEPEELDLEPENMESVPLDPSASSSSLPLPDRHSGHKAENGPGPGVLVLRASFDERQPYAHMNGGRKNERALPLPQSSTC

[7] = target: T5, human IGF-1R(1-902)-His10 (human, UniProt P08069 31-932); test: SPR, antibody over captured IGF-1R-10His
T5 construct: Cy5-labelled in tr-FRET; also called hIGF-1R-His10; IGF-1R-His
Protocol: All surface plasmon resonance (SPR) experiments were performed on a Biacore 3000 set to 25° C. using HBS-EP (Biacore, Cat. No. BR-1001-88) as the running buffer. A biotin-labeled anti-HisTag antibody (biotin-PENTA-His, Qiagen Cat. No. 34440) was immobilized to saturation on a Biacore SA chip (Cat. No. BR-1000-32) surface by injection at 500 nM in HBS-EP buffer. […] Subsequent to IGF-1R injections, flow rates were increased to 20 μL/min. A second, 130 μL injection of anti-IGF-1R antibody or Fab was performed to investigate interactions with the receptor. Each antibody and Fab was serially diluted from 64 nM to 0.5 nM to obtain concentration dependent kinetic binding curves. Each injection series was regenerated using 3×10 μL injections of 10 mM Acetate, pH 4.0, at 20 μL/min. Each curve was double referenced using (1) data obtained from a streptavidin surface devoid of IGF-1R and (2) data from a primary injection of IGF-1R followed by a secondary injection of HBS-EP buffer. The concentration series for each antibody and Fab was fit to the 1:1 binding model provided within the BiaEvaluation software of the manufacturer.
The rates at which the antibodies accumulate on the IGF-1R coated surface when applied at various concentrations as well as the rates at which they dissociated during applications of pure buffer were investigated by fitting the data to a 1:1 binding model. Approximate kinetic rate constants and equilibrium dissociation constant were calculated (Table 14).

human IGF-1R(1-903)-Fc [8] = target: T1, human IGF-1R(1-903)-Fc; test: competition ELISA: biotinylated hIGF-1R-Fc on streptavidin plate, 320 nM human IGF-1 His, detection with anti-His-HRP; blocked ligand human IGF-1 His
Protocol: hIGF-1R-Fc was biotinylated using EZ-Link Sulfo-NHS-LC-Biotin according to the protocol provided by the manufacturer (Pierce Cat. No. 21335). Biotinylated human IGF-1R-Fc at 5 μg/ml was added to the wells of SigmaScreen streptavidin-coated 96-well plates (Sigma, Cat. No. M5432-5EA; Sigma-Aldrich Corp. (St. Louis, Mo., USA)) at 100 μL/well and incubated overnight at 2-8° C. The plates were then washed four times with 200 μL/well PBST. […] The dilutions were added to the plates in duplicate at 100 μL/well and the plates were incubated at RT for 1 hour. The plates were then washed four times with 200 μL/well PBST. An HRP-conjugated anti-Histag antibody (Penta-His HRP Conjugate, QIAGEN, Cat. No. 1014992) was diluted 1:1000 in PBST and added to plates at 100 μL/well, and the plates were incubated at RT for one hour. The plates were then washed four times with 200 μL/well PBST. SureBlue Reserve TMB Microwell Peroxidase Substrate (KPL, Cat. No. 53-00-01) was added to plates at 100 μL/well followed by 1% phosphoric acid at 100 μL/well once the desired reaction was observed. The absorbance of each well was determined at 450 nm, and the results were normalized and plotted against the log of antibody concentration.

human INSR(28-956)-His10 [9] = target: T6, human INSR(28-956)-His10 (human, UniProt P06213 28-956); test: ELISA on coated rh-INSR
T6 construct: range 28-956; Bought (R&D Systems 1544-IR); also called rh-INSR; soluble insulin receptor
Protocol: (§1) ELISA assays were performed to determine specific binding of the Fab fragment antibodies to soluble IGF-1R over the insulin receptor. […] Color development was stopped by addition of 4NH₂SO₄ and optical density is measured at 450 nm using a Molecular Devices plate reader and binding curves are generated.

human INSR(28-956)-His10 [10] = target: T6, human INSR(28-956)-His10; test: ELISA, plate coated with rh-INSR
Protocol: as §1

[11] = target: T2, human IGF-1R expressed on cells; test: flow cytometry, MCF-7 cells
Protocol: The ability of Fabs to bind to the wild type IGF-1R was determined by flowcytometry using MCF-7 tumor cell line.
MCF-7 cells (Human Breast Adenocarcinoma from NCI) were split 24 hours prior to the setup of the assay to obtain 70% confluent monolayer. Routinely, MCF-7 cell line was maintained within 20 passages. Cells were lifted with cell dissociation buffer (Gibco catalog #13151-014), counted, washed and adjusted to 1×10⁶ cells/ml and one ml of cells were then added to each tube (12×75 mm tube Falcon catalog# 352054). Cells were pelleted and supernatant removed by centrifugation at 1200 rpm for 5 min and 100 μl of diluted antibodies were then added to the cell pellet. Purified Fabs were tested at a starting concentration of either 210 or 60 μg/ml with 1:3 dilutions in FACS buffer, down to 0.001 μg/ml. FACS buffer used throughout the assay was PBS (without Ca++/Mg++) containing 1% BSA (Sigma catalog# A-7906; Sigma-Aldrich Corp. (St. Louis, Mo., USA)) and 0.1% Sodium Azide (Sigma catalog #S2002). […] Samples were allowed to incubate on ice for 1 hour and 15 minutes then were washed with 2 ml FACS buffer and centrifuged at 1200 rpm for 5 minutes at 4° C. The supernatant was aspirated and 100 μl of the secondary detection antibody was added to each corresponding tube in FACS buffer. Samples were then incubated for 30 minutes on ice, in the dark. Cells were washed as described above, then, re-suspended in […] FACS buffer per tube/sample.
Cells were stained for live cell determination with Propidium Iodide staining solution (PI for dead cell exclusion; BD Pharmingen catalog# 51-66211E or 556463; use at 1:500 final in FACS buffer). Samples were run on the FACSCalibur instrument (Becton Dickinson) with 10,000 live events collected per sample.

[12] = target: T5, human IGF-1R(1-902)-His10; test: ELISA, plate coated with rh-IGF-1R, bound Fab detected with anti-human kappa-HRP
Protocol: as §1

B1: M14-C03.G4.P.agly (antibody, human IgG4 S228P, kappa, V domains shown)
VH: EVQLLESGGGLVQPGGSLRLSCAASGFTFSKYMMSWVRQAPGKGLEWVSYISPSGGLTWYADSVKGRFTISRDNSKNTLYLQMNSLRAEDTAVYYCARDGARGYGMDVWGQGTTVTVSS
VL: DIQMTQSPATLSLSPGERATLSCRASQSVSSYLAWYQQKPGQAPRLLIYDASNRATGIPARFSGSGSGTDFTLTISSLEPEDFAVYYCQQRSNWPPEVTFGPGTKVDIKR
notes: Full-length human aglycosylated IgG4.P, kappa; Places that say only 'M14-C03 antibody' were assigned to this version; also called M14-C03_Ab
Human IGF-1R(1-903)-Fc [1]
  percent competition (relative to self-competition): 90 to 100%
[2]
  inhibition of IGF-1 and IGF-2 mediated IGF-1R receptor phosphorylation (EC50): < 1 nM
Human IGF-1R(1-903)-Fc [3]
  IC50 (read off the curve): ~1 nM
[4]
  binding result: binds
Human IGF-1R(1-903)-Fc [5]
  EC50 (read off the curve): ~0.07 nM
[6]
  binding result: binds
[7]
  Kd: 0.36 nM
  koff: 0.0002 s⁻¹
  kon: 570000 M⁻¹ s⁻¹
Human IGF-1R(1-903)-Fc [8]
  IC50 (read off the curve): ~5 nM

B2: M12-E01 Fab (Fab, V domains shown)
VH: EVQLLESGGGLVQPGGSLRLSCAASGFTFSPYSMLWVRQAPGKGLEWVSSIGSSGGSTRYADSVKGRFTISRDNSKNTLYLQMNSLRAEDTAMYYCARVRGILHYDILIGRNLYYYYMDVWGKGTTVTVSS
VL: QYELTQPPSVSEAPRQRVTISCSGSSSNIGNNAINWYQQLPGKPPKLLIYYDDLLPSGVSDRFSGSKSGTSGSLAISGLQSEDEADYYCAAWDDNLNGVIFGGGTKLTVL
Human INSR(28-956)-His10 [9]
  binding result: no binding (tested: 2 µM-0.2 nM)

B3: M14-B01 Fab (Fab, V domains shown)
VH: EVQLLESGGGLVQPGGSLRLSCAASGFTFSNYHMAWVRQAPGKGLEWVSVISPTGGRTTYADSVKGRFTISRDNSKNTLYLQMNSLRAEDTATYYCARAGYSYGYGYFDYWGQGTLVTVSS
VL: DIQMTQFPATLSVSPGERATLSCRASQSVMRNLAWYQQKPGQPPRLLIYGASKRATGIPARFSGSGSGTAFTLTISNLEPEDFAVYYCHQRSTWPLGTFGPGTKLEAK
notes: Human phage Fab, kappa
Human INSR(28-956)-His10 [10]
  binding result: no binding (tested: about 20000 nM)
[11]
  EC50: 29.4 nM
[12]
  EC50 (read off the curve): ~6 nM
